Data as given in PMC13094992, “Genetic complementation reveals structure-function links in nodavirus RNA replication complex crowns” (PLOS Pathogens, 2026).
Positions count from the first letter of the chain named. Names and notes keep the numbering of the source.

B1: FHV protein A H93A, C-terminal alfa tag (natural protein)
chain: MTLKVILGEHQITRTELLVGIATVSGCGAVVYCISKFWGYGAIAPYPQSGGNRVTRALQRAVIDKTKTPIETRFYPLDSLRTVTPKRVADNGAAVSGAVRDAARRLIDESITAVGGSKFEVNPNPNSSTGLRNHFHFAVGDLAQDFRNDTPADDAFIVGVDVDYYVTEPDVLLEHMRPVVLHTFNPKKVSGFDADSPFTIKNNLVEYKVSGGAAWVHPVWDWCEAGEFIASRVRTSWKEWFLQLPLRMIGLEKVGYHKIHHCRPWTDCPDRALVYTIPQYVIWRFNWIDTELHVRKLKRIEYQDETKPGWNRLEYVTDKNELLVSIGREGEHAQITIEKEKLDMLSGLSATQSVNARLIGMGHKDPQYTSMIVQYYTGKKVVSPISPTVYKPTMPRVHWPVTSDADVPEVSARQYTLPIVSDCMMMPMIKRWETMSESIERRVTFVANDKKPSDRIAKIAETFVKLMNGPFKDLDPLSIEETIERLNKPSQQLQLRAVFEMIGVKPRQLIESFNKNEPGMKSSRIISGFPDILFILKVSRYTLAYSDIVLHAEHNEHWYYPGRNPTEIADGVCEFVSDCDAEVIETDFSNLDGRVSSWMQRNIAQKAMVQAFRPEYRDEIISFMDTIINCPAKAKRFGFRYEPGVGVKSGSPTTTPHNTQYNGCVEFTALTFEHPDAEPEDLFRLIGPKCGDDGLSRAIIQKSINRAAKCFGLELKVERYNPEIGLCFLSRVFVDPLATTTTIQDPLRTLRKLHLTTRDPTIPLADAACDRVEGYLCTDALTPLISDYCKMVLRLYGPTASTEQVRNQRRSRNKEKPYWLTCDGSWPQHPQDAHLMKQVLIKRTAIDEDQVDALIGRFAAMKDVWEKITHDSEESAAACTFDEDGVAPNSVDESLPMLNDAKQTRANPGTSRPHSNGGGSSHGNELPRRTEQRAQGPRQPARLPKQGKTNGKSDGNITAGETQRGGIPRGKGPRGGKTNTRRTPPKAGAQPQPSNNRK
notes: also called RNA capping null mutant H93A; not shown: ALFA tag, C-terminal, kept
B2: FHV protein A D692E, C-terminal alfa tag (natural protein)
chain: B1 chain with A93H, D692E
notes: also called RNA polymerase null mutant D692E; not shown: ALFA tag, C-terminal, kept

Molecular target: the molecule itself
Test: negative-stain electron microscopy (2D classification, 3D reconstruction)

| Protein | binding result |
| --- | --- |
| B1 | binds |
| B2 | binds |
